6 substances from patent publication US20200024330A1 can be followed below.

Holding throughout (assay): cell-based or functional assay
For assay [1], the target named is HIV-1 Env of isolate Du172 (HIV-1).
Assay [2] concerns the target HIV-1 Env of isolate ZM214 (HIV-1).
Assay [3] has as its target HIV-1 MGRM-AG-005 Env (clade AG pseudovirus) (HIV-1).
Assay [4] has as its target HIV-1 JRFL Env (clade B pseudovirus) (HIV-1).
Assay [5] has as its target HIV-1 APV6 Env (clade B pseudovirus) (HIV-1).
For assay [6], the target named is HIV-1 92BR020 Env (clade B pseudovirus) (HIV-1).
The target of assay [7] is HIV-1 NL43 Env (clade B pseudovirus) (HIV-1).
The target of assay [8] is HIV-1 92TH021 Env (clade AE pseudovirus) (HIV-1).
Assay [9] addresses HIV-1 CMU02 Env (pseudovirus) (HIV-1).
In assay [10] the target is HIV-1 92UG024 Env (pseudovirus) (HIV-1).
The target of assay [11] is HIV-1 MGRM-C-028 Env (pseudovirus) (HIV-1).
The target in assay [12] is HIV-1 Env of isolate 93IN905 (clade C) (HIV-1).
For assay [13], the target named is HIV-1 Env of isolate NL43 (clade B) (HIV-1).
Assay [14] has as its target HIV-1 Env of isolate MGRM-C-026 (clade C) (HIV-1).
The target of assay [15] is HIV-1 Env of isolate 92RW020 (clade A) (HIV-1).
For assay [16], the target named is HIV-1 Env of isolate JRCSF (clade B) (HIV-1) (UniProt P20871).
Assay [17] has as its target HIV-1 Env of isolate 93UG077 (clade A) (HIV-1).
The target of assay [18] is HIV-1 Env of isolate 94UG103 (clade A) (HIV-1).
For assay [19], the target named is HIV-1 envelope glycoprotein (Env) of isolate JRFL, on pseudovirus (HIV-1).
The target in assay [20] is HIV-1 Env of isolate MGRM-F1-021 (clade F), on pseudovirus (HIV-1).
Assay [21] has as its target HIV-1 envelope glycoprotein (Env) of isolate MGRM-Chronic-B-001, on pseudovirus (HIV-1).
Assay [22] deals with HIV-1 Env of isolate QH0692.42 (subtype B) (HIV-1).
Assay [23] has as its target HIV-1 Env of isolate MG RM-A-005 (pseudovirus) (HIV-1).
Assay [24] addresses HIV-1 Env of isolate MGRM-D-003 (subtype D), on pseudovirus (HIV-1).
Assay [25] deals with HIV-1 Env of isolate 92TH021 (pseudovirus) (HIV-1).
The target of assay [26] is HIV-1 Env of isolate MGRM-AE-003 (pseudovirus) (HIV-1).
Assay [27] deals with HIV-1 Env of isolate 98CN006 (subtype CRF08 BC), on pseudovirus (HIV-1).
Assay [28] deals with HIV-1 Env of isolate MGRM-D-004 (subtype D), on pseudovirus (HIV-1).
The target of assay [29] is HIV-1 Env of isolate 92UG005 (subtype D), on pseudovirus (HIV-1).
The target in assay [30] is HIV-1 Env of isolate 93WR029 (pseudovirus) (HIV-1).
Assay [31] has as its target HIV-1 Env of isolate MGRM-AE-001 (pseudovirus) (HIV-1).
Assay [32] concerns the target HIV-1 Env of isolate APV_6 (HIV-1).
Assay [33] deals with HIV-1 Env of isolate 92WR021 (pseudovirus) (HIV-1).
Assay [34] addresses HIV-1 Env of isolate MG RM-A-009 (pseudovirus) (HIV-1).
Assay [35] has as its target HIV-1 Env of isolate MG RM-A-013 (pseudovirus) (HIV-1).

As a reminder, the IC50 is the concentration that gives 50% inhibition. Broadly, the IC80 is the point of the concentration-response curve where the effect stands at 80%. As usually defined, the IC90 is the point of the concentration-response curve where the effect stands at 90%. Low readings indicate greater potency, high ones weaker potency. The IC95 is the concentration at which the effect reaches the 95% level. Lower therefore signals an effect from little substance.

Sequence of 1443_C16 (PG16) (TCN-116) (antibody) (VH): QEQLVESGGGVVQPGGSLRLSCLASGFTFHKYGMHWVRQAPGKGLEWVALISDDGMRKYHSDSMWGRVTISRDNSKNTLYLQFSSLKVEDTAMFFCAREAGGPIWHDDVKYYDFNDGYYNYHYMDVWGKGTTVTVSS
Sequence of 1443_C16 (PG16) (TCN-116) (antibody) (VL): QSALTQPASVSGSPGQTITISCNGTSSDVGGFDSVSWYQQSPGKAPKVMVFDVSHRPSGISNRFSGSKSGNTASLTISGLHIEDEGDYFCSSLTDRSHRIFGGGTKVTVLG

As for 1443_C16 (PG16) (TCN-116) (antibody), the IC50, pseudovirus neutralization (TZM-bl) in assay [1] is under 0.01 µg/mL; in [2] it was over 25 µg/mL.

As to 4877_D15 (PGT-122) (antibody), the Neutralization by PGT-122, IC50 in assay [3] is over 10 µg/mL; in [4], 0.0471 µg/mL; in [5], 0.0851 µg/mL; in assay [6], 0.0337 µg/mL; in [7], over 10 µg/mL; in [8], over 10 µg/mL. In addition, the Neutralization by PGT-122, IC80 in assay [3] was over 10 µg/mL; in assay [4], 0.166 µg/mL; in assay [5], 0.351 µg/mL; in assay [6], 0.0929 µg/mL; in [7] it was over 10 µg/mL; in [8], over 10 µg/mL. The Neutralization by PGT-122, IC90 in assay [3] was over 10 µg/mL; in assay [4] it was 0.342 µg/mL; in [5] it was 0.779 µg/mL; in assay [6] it was 0.168 µg/mL; in [7], over 10 µg/mL; in assay [8], over 10 µg/mL. Also, the Neutralization by PGT-122, IC95 in [3] was over 10 µg/mL; in [4] it was 0.659 µg/mL; in assay [5], 1.55 µg/mL; in assay [6], 0.289 µg/mL; in assay [7], over 10 µg/mL; in assay [8], over 10 µg/mL.

As to 5141_B17 (PGT-126) (antibody), in assay [9], the IC50 was over 10 µg/mL, the concentration for an effect of 80% (IC80) was over 10 µg/mL, the IC90 was over 10 µg/mL and the IC95 is over 10 µg/mL. Moreover, in assay [10], the IC50 was over 10 µg/mL, the IC80 was over 10 µg/mL, the IC90 was over 10 µg/mL and the IC95 is over 10 µg/mL. In [11], this substance showed a half-inhibitory concentration (IC50) of 0.283 µg/mL, a concentration for an effect of 80% (IC80) of 2.62 µg/mL, an IC90 of over 10 µg/mL and a concentration for an effect of 95% (IC95) of over 10 µg/mL.

As to 5147_N06 (PGT-130) (antibody), the neutralization IC50 in assay [12] is 0.0182 µg/mL; in [13], over 10 µg/mL; in [14], 0.0173 µg/mL; in assay [15] it was 0.014 µg/mL; in [16] it was 0.0089 µg/mL; in assay [17], over 10 µg/mL. Further, in [18], the neutralization IC50 is 0.635 µg/mL. Moreover, the neutralization IC80 was 0.272 µg/mL in assay [12]; over 10 µg/mL in assay [13]; 0.263 µg/mL in assay [14]; 0.508 µg/mL in assay [15]; 0.0317 µg/mL in assay [16]; over 10 µg/mL in assay [17]. Further, the neutralization IC80 in assay [18] is over 10 µg/mL. In addition, the neutralization IC90 in [12] is 1.31 µg/mL; in [13], over 10 µg/mL; in assay [14] it was 1.32 µg/mL; in assay [15], 3.68 µg/mL; in [16], 0.0669 µg/mL; in assay [17], over 10 µg/mL. The substance also yielded a neutralization IC90 in assay [18] of over 10 µg/mL. Further, the neutralization IC95 in assay [12] was 5.48 µg/mL; in assay [13], over 10 µg/mL; in assay [14], 6.13 µg/mL; in [15], over 10 µg/mL; in [16] it was 0.134 µg/mL; in assay [17], over 10 µg/mL. In assay [18], this substance registered a neutralization IC95 of over 10 µg/mL.

Regarding PGV04 (antibody), the IC50, pseudovirus neutralization stood at 0.032 µg/mL in [19] and 0.048 µg/mL in assay [21]. The substance further returned an IC50 (µg/mL), single-round pseudovirus neutralization in assay [20] of 0.031 µg/mL. In [22], this substance had an IC50 (µg/mL), pseudovirus neutralization of 1.9 µg/mL.

For the substance VRC01 (antibody), the IC50 (µg/mL), pseudovirus neutralization in assay [23] was determined as 0.095 µg/mL; in assay [25], 0.616 µg/mL; in assay [26], 0.685 µg/mL; in assay [30], 1.57 µg/mL; in [31] it was 0.167 µg/mL; in assay [33], 0.066 µg/mL. In addition, the IC50 (µg/mL), pseudovirus neutralization in assay [34] turned out to be 0.118 µg/mL; in assay [35], 0.152 µg/mL. Besides, the IC50, pseudovirus neutralization in [24] turned out to be 2.06 µg/mL; in assay [27], 0.644 µg/mL; in assay [28] it was 1.25 µg/mL; in assay [29] it was 0.576 µg/mL. The same substance gave an IC50 in assay [32] of 1.81 µg/mL.
